Fewer inactive variants are shown than the library holds.
B1: TPR 5TU (parent)
chain: GGAUCUUCUCGAUCUAACAAAAAAGACAAAUCUGCCACAAAGCUUGAGAGCAUCUUCGGAUGCAGAGGCGGCAGCCUUCGGUGGCGCGAUAGCGCCAACGUUCUCAACUAUGACACGCAAAACGCGUGCUCCGUUGAAUGGAGUUUAUCAUG

Variants of: B1
Assay: polymerase ribozyme fitness, log enrichment relative to wild type (log ratio); higher = more active; in vitro selection for triplet polymerase activity
Summary of the method: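 Mutant libraries were PCR-built and transcribed for each subunit of a heterodimeric triplet polymerase ribozyme and selected for one round in triplicate at −7 °C, frozen, before gel excision of extended constructs and streptavidin-bead capture. Input and output libraries were Illumina-sequenced, keeping genotypes with ≥10 input reads and ≥1 read per output. Fitness is a logarithmic ratio of genotype to wild-type enrichment, in base 2, using inverse-variance-weighted replicate averages.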

| Variant | polymerase ribozyme fitness (log ratio) |
| --- | --- |
| U33G G62U C69U C103A G126C | ≤ -4.2 |
| C32G A52C U61A G62C C63A C75U C93U | -4.14 |
| U33A U53A U148C | ≤ -4.2 |
| C32G U61A G92U C131U | ≤ -4.2 |
| G34U A40G C69U G80U C99U A107G U139G G140U U148C | ≤ -4.2 |
| U33C A49G U77G U130A G133U U135A | ≤ -4.2 |
| U33G U53A G58A | -3.78 |
| C32U U33G C38U C54U U77A A107U | -3.74 |
| U33C C87G G152A | ≤ -4.2 |
| C35A C57U C93G U134A U139A | ≤ -4.2 |
| U33G C35G A60G A107G | ≤ -4.2 |
| G34U C54U A66C A91U A121U | -4.11 |
| C32U A40C C85G C103A | ≤ -4.2 |
| C35A A39C A91U A121U | ≤ -4.2 |
| U33G U56C G81C C95U | -3.74 |
| U33A A41C U53C C57U G65A A66C G67C G80C | ≤ -4.2 |
| C32U G71C C103G A113G A121G U134C | ≤ -4.2 |
| C32U G50C C54G A73G G88A C96G | ≤ -4.2 |
| U33A G58A C96A G152U | -3.79 |
| U33G A41U G46C C54G G62C G70U C96A A120G G124U | ≤ -4.2 |
| G34U A40G U55G U56A U101A U102G G126A | ≤ -4.2 |
| C32U A49U | -4.14 |
| C32U A49C | -4.13 |
| C32U U53A G84U A120G G128U A142U | ≤ -4.2 |

| Variant | polymerase ribozyme fitness (log ratio) |
| --- | --- |
| C35A C43U A49U A64G C76U C96A U101G C149U | ≤ -4.2 |
| C35A A66G C87U U127C | ≤ -4.2 |
| G34A G67U U77C A89C U101G C116G U151C | ≤ -4.2 |
| C35A A49C U56C G71A C72U G92A A115C | -3.21 |
| U33C A97G | -2.92 |
| C32G C96U C116G G141U | ≤ -4.2 |
| U33G A60G C85A A97U A142C | ≤ -4.2 |
| U33G C116U | -2.7 |
| U33C C95U | -2.01 |
| C35A A89U U90G C99U U144G | ≤ -4.2 |
| C32U C69A G84A C96G U111A | ≤ -4.2 |
| G34A A91G | -3.57 |
| G34C C36A A91C C96U C123G G140A | -4.15 |
| C32U A41C G58U A60C C75G C96U C114A | ≤ -4.2 |
| U33A A91C | ≤ -4.2 |
| U33A A91G | ≤ -4.2 |
| G34A A106U A142U | ≤ -4.2 |
| C32U C125U | -2.22 |
| G34U A41G G81A G84U C87A C93A A110G | ≤ -4.2 |
| U33C A49C C57U U145A U151A | ≤ -4.2 |
| U33C A40C G68U C95A U102C C132G | -3.48 |
| U33G A73G | -0.513 |
| G34A G117U A137C A142U | ≤ -4.2 |
| G34U A142C | -3.85 |

| Variant | polymerase ribozyme fitness (log ratio) |
| --- | --- |
| G34C A49C A52G U61G C87U C95A | -4.12 |
| U33G C95G C116A | -4.15 |
| C35A C76A C93U A113U U130G A147G | ≤ -4.2 |
| U33G U55G G68A C79A G84U G136U | ≤ -4.2 |
| C32U U61A G74U C99G | ≤ -4.2 |
| C32U A41U | -3.95 |
| G34U C75G G81U C87U A120U | -3.98 |
| U33A G46A G59A C103A A115G | -4.12 |
| C32U U101A | -3.76 |
| U33A G92A | ≤ -4.2 |
| U33G G48C U53A C93U C149U | ≤ -4.2 |
| C32G A110G A122C G141C | -4.02 |
| C32G G65C A73G C76U A106G | ≤ -4.2 |
| C32G G92A U111G | -4.13 |
| C32U U55G U61C G84U G100C | ≤ -4.2 |
| U33A C43G G50U G84A A89U | ≤ -4.2 |
| U33A C85U | -3.79 |
| C32U C43U G92A U146G | ≤ -4.2 |
| C32G C38G C93G G133U | -3.72 |
| C32G U44A G65A C85G | ≤ -4.2 |
| G34C C87G U90G G92A U148A | ≤ -4.2 |
| G34U U77G C87A A113C | ≤ -4.2 |
| G34A U102G | ≤ -4.2 |
| C32G A91C U139G | ≤ -4.2 |

| Variant | polymerase ribozyme fitness (log ratio) |
| --- | --- |
| C32U C38U C93G A122G G126C U145A | ≤ -4.2 |
| U33A G80A | -3.68 |
| C32G C57U C95U A142C U144G | ≤ -4.2 |
| U33C A39C G88A C118G C123A | ≤ -4.2 |
| G34A C69A A106G A147C | -3.75 |
| C32U G84A | -2.55 |
| C32U U144A | -2.41 |
| C35A A47C G86U | ≤ -4.2 |
| U33C C69U | -0.0558 |
| G34A A37C C43U C125G U130A C149A | ≤ -4.2 |
| C32U C85U | -1.97 |
| C32U A40U U56C C85U U90A C114U | -4.06 |
| U33C C85A | -3.61 |
| G34C U139G | -3.21 |
| U33G C54A G86A C87G A119U A122U G143C A147C | ≤ -4.2 |
| C32U U61G | -3.73 |
| C32U U61C | -3.52 |
| C32U C63U A91U C96U A113U G124C | ≤ -4.2 |
| U33A G50C A52C C87A C96U C105U U127G U144A | ≤ -4.2 |
| G34U A41G A47C C116U | ≤ -4.2 |
| U33G G83A G88U G136C | ≤ -4.2 |
| G34U G94A | -2.37 |
| C32U A147C | -2.55 |
| C32G U56A G94A C108U G124C U145A | ≤ -4.2 |

| Variant | polymerase ribozyme fitness (log ratio) |
| --- | --- |
| G34U C36G G59C U148C | ≤ -4.2 |
| U33G G46C C95U C99A A107G G133U | ≤ -4.2 |
| U33A U56A U90A A122C U151G | ≤ -4.2 |
| G34U C51A G84C | ≤ -4.2 |
| G34A C75U | -3.68 |
| U33G G50A C93G G128A | ≤ -4.2 |
| U33C C35G C36G G50C G94U | ≤ -4.2 |
| C32G C93U A119U A147U | ≤ -4.2 |
| C32U C69G C72U G88C U135G | ≤ -4.2 |
| U33C A60U A73U A122G | -2.54 |
| U33A U56A C75G G81U G83A U127A | ≤ -4.2 |
| G34A G84A U134G | -2.82 |
| C32G U45C | -4.16 |
| U33C C43U G126U | ≤ -4.2 |
| G34U U82G C96G A106G U145C | -3.75 |
| U33A C57U C79G A89U A97G | ≤ -4.2 |
| U33G G59A G94U | -3.39 |
| G34U G83U A115G U145G | ≤ -4.2 |
| C32G G48U G68A U134A U145C | ≤ -4.2 |
| C32G C43U C54U A73G U77G | ≤ -4.2 |
| C32G G42C A49U G94C C95A G126A | -3.97 |
| C32G C54A C75U U77A C85U A106G U135C | ≤ -4.2 |
| G34A U56A G92C | -1.65 |
| U33C C54U C96U A107C | ≤ -4.2 |

| Variant | polymerase ribozyme fitness (log ratio) |
| --- | --- |
| C32U U61A G94C C105U A107U A110U | ≤ -4.2 |
| C32U G46A A60U G83C C96A G141A | ≤ -4.2 |
| U33C C63U C99U A142G | ≤ -4.2 |
| G34A G50C G92U | ≤ -4.2 |
| G34U A40G C72U C96G | ≤ -4.2 |
| C32G U55A | -3.78 |
| C32G C38U G58A U82A C96A U104G A110C G133A U139A G152U | ≤ -4.2 |
| C32U A40G C105A | -3.89 |
| G34C U55G G65A | ≤ -4.2 |
| C32U G42A A60C A66G A73G C79A G84A C93U C96G A97U C103G | ≤ -4.2 |
| C32U C85A C99G G133C U139G | ≤ -4.2 |
| U33G U56A A91U C116U | -3.95 |
| G34A G50A G68U G71A C76A C85A C125U | ≤ -4.2 |
| U33C A41U C57U G70C G83A A119C | ≤ -4.2 |
| U33A C85U U146G A147U A150G | ≤ -4.2 |
| U33A U61A | -3.64 |
| U33C C54A G83C C108G U146A C149A | ≤ -4.2 |
| C35A A64C A98U C99U G152U | ≤ -4.2 |
| C35A A37G U56A U61A | -3.7 |
| C32G U55A G58A G68A C85U G88C C93A A106G C116A U135A | ≤ -4.2 |
| G34A U111C A113C G124U G152U | ≤ -4.2 |
| U33G G50A C63G G94A C95G C116U | ≤ -4.2 |
| U33G A52C G92C U139C | ≤ -4.2 |
| U33A G86A A142G | ≤ -4.2 |

| Variant | polymerase ribozyme fitness (log ratio) |
| --- | --- |
| C32U G81U G84A G94C | -3.46 |
| U33C U56C G59C C79A C95U C123A G140U | ≤ -4.2 |
| C32G C85G U90G C118A G133U G140C C149G | ≤ -4.2 |
| U33A A47C C99A | ≤ -4.2 |
| C32U G62A C76G G84U C116U G140A C149U | ≤ -4.2 |
| G34C A41G C54A U135C U145G | ≤ -4.2 |
| G34U G141C | -2.78 |
| C35A A39G G141U | ≤ -4.2 |
| C32U U33A U151A | -4.18 |
| U33G A40C C116A | -3.88 |
| U33C G81U C93G G143U | -4.06 |
| U33C C57U G80U G83U C87U G128U | ≤ -4.2 |
| G34U A37U U55A G136U | ≤ -4.2 |
| C32U C76A G83U G92C C114U C123A | ≤ -4.2 |
| C32G G83A C85G C108G G124A U135G | ≤ -4.2 |
| G34U G58A G59A C85U U101G A150G | ≤ -4.2 |
| C32U C54G G68U C75A | -3.88 |
| U33G A113C | -4.01 |
| C32U C36U G68A G83U | ≤ -4.2 |
| U33A C76G G84C C85G C87G A89G G136C U145A | ≤ -4.2 |
| C32G C51U U53A G94A U101A A122G | ≤ -4.2 |
| U33A G46U C75A G140C | ≤ -4.2 |
| G34A G48C G59A U102G C114A G143U A147G | ≤ -4.2 |

— the RNAGym collection of RNA variant scans (doi:10.1073/pnas.2313332121)
